Results from patent publication US20260117202A1.

Tests used:
Assay in all cases: sandwich ELISA, AM14 coated, supernatant 1:10
FHS-31 (RSV strain A2) = FHS-31 (RSV strain A2) (UniProt P03420)
FHM-14 (RSV strain A2) = FHM-14 (RSV strain A2) (UniProt P03420)
FHS-78 (RSV strain A2) = FHS-78 (RSV strain A2) (UniProt P03420)
FHS-92 (RSV strain A2) = FHS-92 (RSV strain A2) (UniProt P03420)
FHS-3 (RSV strain A2) = FHS-3 (RSV strain A2) (UniProt P03420)
FHS-64 (RSV strain A2) = FHS-64 (RSV strain A2) (UniProt P03420)
FHS-54 (RSV strain A2) = FHS-54 (RSV strain A2) (UniProt P03420)
FHS-30 (RSV strain A2) = FHS-30 (RSV strain A2) (UniProt P03420)
FHS-52 (RSV strain A2) = FHS-52 (RSV strain A2) (UniProt P03420)
FHM-20 (RSV strain A2) = FHM-20 (RSV strain A2) (UniProt P03420)
FHM-12 (RSV strain A2) = FHM-12 (RSV strain A2) (UniProt P03420)
FHS-7 (RSV strain A2) = FHS-7 (RSV strain A2) (UniProt P03420)
FHS-38 (RSV strain A2) = FHS-38 (RSV strain A2) (UniProt P03420)
FHS-29 (RSV strain A2) = FHS-29 (RSV strain A2) (UniProt P03420)
FHM-8 (RSV strain A2) = FHM-8 (RSV strain A2) (UniProt P03420)
FHS-50 (RSV strain A2) = FHS-50 (RSV strain A2) (UniProt P03420)
FHM-13 (RSV strain A2) = FHM-13 (RSV strain A2) (UniProt P03420)
FHS-42 (RSV strain A2) = FHS-42 (RSV strain A2) (UniProt P03420)
FHS-57 (RSV strain A2) = FHS-57 (RSV strain A2) (UniProt P03420)
FHS-82 (RSV strain A2) = FHS-82 (RSV strain A2) (UniProt P03420)
FHS-14 (RSV strain A2) = FHS-14 (RSV strain A2) (UniProt P03420)
FHM-25 (RSV strain A2) = FHM-25 (RSV strain A2) (UniProt P03420)
FHS-88 (RSV strain A2) = FHS-88 (RSV strain A2) (UniProt P03420)
FHS-23 (RSV strain A2) = FHS-23 (RSV strain A2) (UniProt P03420)
FHS-94 (RSV strain A2) = FHS-94 (RSV strain A2) (UniProt P03420)
FHS-75 (RSV strain A2) = FHS-75 (RSV strain A2) (UniProt P03420)
FHS-84 (RSV strain A2) = FHS-84 (RSV strain A2) (UniProt P03420)
FHS-67 (RSV strain A2) = FHS-67 (RSV strain A2) (UniProt P03420)
FHM-15 (RSV strain A2) = FHM-15 (RSV strain A2) (UniProt P03420)
FHS-95 (RSV strain A2) = FHS-95 (RSV strain A2) (UniProt P03420)
FHS-59 (RSV strain A2) = FHS-59 (RSV strain A2) (UniProt P03420)
FHS-41 (RSV strain A2) = FHS-41 (RSV strain A2) (UniProt P03420)
FHS-1 (RSV strain A2) = FHS-1 (RSV strain A2) (UniProt P03420)
FHM-16 (RSV strain A2) = FHM-16 (RSV strain A2) (UniProt P03420)
FHS-36 (RSV strain A2) = FHS-36 (RSV strain A2) (UniProt P03420)
FHS-43 (RSV strain A2) = FHS-43 (RSV strain A2) (UniProt P03420)
FHM-4 (RSV strain A2) = FHM-4 (RSV strain A2) (UniProt P03420)
FHS-83 (RSV strain A2) = FHS-83 (RSV strain A2) (UniProt P03420)
FHM-6 (RSV strain A2) = FHM-6 (RSV strain A2) (UniProt P03420)
FHS-15 (RSV strain A2) = FHS-15 (RSV strain A2) (UniProt P03420)
FHM-24 (RSV strain A2) = FHM-24 (RSV strain A2) (UniProt P03420)

AM14 monoclonal antibody
OD value (FHS-31 (RSV strain A2)): 0.007 OD | OD value (FHM-14 (RSV strain A2)): 0.008 OD | OD value (FHS-78 (RSV strain A2)): 1.24 OD | OD value (FHS-92 (RSV strain A2)): 0.012 OD | OD value (FHS-3 (RSV strain A2)): 0.076 OD | OD value (FHS-64 (RSV strain A2)): 0.008 OD | OD value (FHS-54 (RSV strain A2)): 0.012 OD | OD value (FHS-30 (RSV strain A2)): 0.009 OD | OD value (FHS-52 (RSV strain A2)): 0.007 OD | OD value (FHM-20 (RSV strain A2)): 0.607 OD | OD value (FHM-12 (RSV strain A2)): 2.13 OD | OD value (FHS-7 (RSV strain A2)): 0.011 OD | OD value (FHS-38 (RSV strain A2)): 0.008 OD | OD value (FHS-29 (RSV strain A2)): 0.007 OD | OD value (FHM-8 (RSV strain A2)): 0.016 OD | OD value (FHS-50 (RSV strain A2)): 2.3 OD | OD value (FHM-13 (RSV strain A2)): 1.07 OD | OD value (FHS-42 (RSV strain A2)): 0.01 OD | OD value (FHS-57 (RSV strain A2)): 0.007 OD | OD value (FHS-82 (RSV strain A2)): 0.063 OD | OD value (FHS-14 (RSV strain A2)): 2.61 OD | OD value (FHM-25 (RSV strain A2)): 2.42 OD | OD value (FHS-88 (RSV strain A2)): 2.3 OD | OD value (FHS-23 (RSV strain A2)): 0.008 OD | OD value (FHS-94 (RSV strain A2)): 0.009 OD | OD value (FHS-75 (RSV strain A2)): 0.028 OD | OD value (FHS-84 (RSV strain A2)): 1.01 OD | OD value (FHS-67 (RSV strain A2)): 1.86 OD | OD value (FHM-15 (RSV strain A2)): 1.5 OD | OD value (FHS-95 (RSV strain A2)): 0.007 OD | OD value (FHS-59 (RSV strain A2)): 0.006 OD | OD value (FHS-41 (RSV strain A2)): 0.006 OD | OD value (FHS-1 (RSV strain A2)): 2.03 OD | OD value (FHM-16 (RSV strain A2)): 0.26 OD | OD value (FHS-36 (RSV strain A2)): 0.009 OD | OD value (FHS-43 (RSV strain A2)): 0.006 OD | OD value (FHM-4 (RSV strain A2)): 0.028 OD | OD value (FHS-83 (RSV strain A2)): 0.064 OD | OD value (FHM-6 (RSV strain A2)): 0.005 OD | OD value (FHS-15 (RSV strain A2)): 0.091 OD | OD value (FHM-24 (RSV strain A2)): 1.61 OD
